We go through 67 sequences from the supplement of paper PMC10724198.

± gives the standard deviation of the averaged measurements.

The series has as its system Saccharomyces cerevisiae. Nature of the series: protein stability index of tFT-peptide fusion (C-terminal peptide) (PSI (0-1 scale)); higher = more stable (slower turnover). The note with it: temperature: 30 C. As for the experimental part: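 MPS profiling in S. cerevisiae of the yeast C-terminome library: the last 12 aa of each annotated ORF are fused to the C-terminus of a sfGFP-mCherry timer, after a GGGS linker. Cells are FACS-sorted into 8 mCherry/sfGFP bins and deep-sequenced. PSI runs from 0 (unstable) to 1 (stable); wild type and das1Δ backgrounds, two technical replicates each.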

Where [1] appears, read: genetic background: das1 deletion.

Take LVKCASATIMLN [MIN3 C-terminal 12 aa]: the protein stability index stood at 0.704 ± 0.021 under setting [1] and 0.483 ± 0.022 (genetic background: wild type).

In the case of LVKPKNWKKFRE [KRE2 C-terminal 12 aa], the protein stability index is, setting by setting: under setting [1], 0.686 ± 0.017; (genetic background: wild type) 0.733 ± 0.022.

LVSYFIKVQMKL [ECM3 C-terminal 12 aa]: the protein stability index reads like this: under setting [1], 0.487 ± 0.0087; (genetic background: wild type) 0.443 ± 0.025.

Take LVYATELIGSGS [ICE2 C-terminal 12 aa]: the protein stability index is, setting by setting: under setting [1], 0.7058 ± 0.0022; (genetic background: wild type) 0.7 ± 0.073.

Regarding LYEHGIKKFDDL [JIP5 C-terminal 12 aa], the protein stability index reads like this: under setting [1], 0.674 ± 0.029; (genetic background: wild type) 0.721 ± 0.039.

On to LYTFIVKKVKRD [GID12 C-terminal 12 aa], for which the protein stability index is, setting by setting: under setting [1], 0.671 ± 0.045; (genetic background: wild type) 0.685 ± 0.024.

As for MEALKEAREILG [MSH1 C-terminal 12 aa], the protein stability index amounted to 0.7025 ± 0.0022 under setting [1] and 0.628 ± 0.019 (genetic background: wild type).

Take MFLSIQPQEARP [KAP120 C-terminal 12 aa]: the protein stability index was 0.72 ± 0.0086 under setting [1] and 0.713 ± 0.011 (genetic background: wild type).

Turning to MFNASSDIFQRN [YML083C C-terminal 12 aa], the protein stability index was found to be 0.703 ± 0.016 under setting [1] and 0.7014 ± 0.0067 (genetic background: wild type).

Take MKEKLKHSRKYM [SHY1 C-terminal 12 aa]: the protein stability index turned out to be 0.7121 ± 0.0039 under setting [1] and 0.6685 ± 0.0027 (genetic background: wild type).

Regarding MKGYGFEVPSAN [COX17 C-terminal 12 aa], the protein stability index under setting [1] was 0.6984 ± 0.0041 and the protein stability index (genetic background: wild type) came to 0.663 ± 0.0067.

As to MKLFEENKKEEE [PET111 C-terminal 12 aa], the protein stability index reads like this: under setting [1], 0.722 ± 0.014; (genetic background: wild type) 0.684 ± 0.035.

For the sequence MLAKIHKLNNKA [RFC4 C-terminal 12 aa], the protein stability index reads like this: under setting [1], 0.7026 ± 0.0053; (genetic background: wild type) 0.704 ± 0.066.

As for MLKFLAVVFFLL [YGL218W C-terminal 12 aa], the protein stability index was determined as 0.392 ± 0.018 under setting [1] and 0.217 ± 0.011 (genetic background: wild type).

As to MLNQQQQQQQQS [NRD1 C-terminal 12 aa], the protein stability index came out at 0.702 ± 0.016 under setting [1] and 0.739 ± 0.017 (genetic background: wild type).

For MNNLFNPHSHDS [GTA1 C-terminal 12 aa], the protein stability index runs as follows: under setting [1], 0.7104 ± 0.0014; (genetic background: wild type) 0.722 ± 0.042.

With MQHRGWSSLMSL [YJR146W C-terminal 12 aa], the protein stability index under setting [1] was determined as 0.7031 ± 0.0016 and the protein stability index (genetic background: wild type) came out at 0.6548 ± 0.0047.

In turn, MSSTKKVRFVML [RMD5 C-terminal 12 aa] displayed a protein stability index under setting [1] of 0.696 ± 0.035 and a protein stability index (genetic background: wild type) of 0.642 ± 0.035.

For the sequence MTSLDICALGIK [RVS161 C-terminal 12 aa], the protein stability index reads like this: under setting [1], 0.689 ± 0.012; (genetic background: wild type) 0.675 ± 0.046.

Take NADDPSYYHYLS [CUL3 C-terminal 12 aa]: the protein stability index reads like this: under setting [1], 0.7059 ± 0.0024; (genetic background: wild type) 0.68 ± 0.01.

Turning to NASEIYVKRKTG [DDL1 C-terminal 12 aa], the protein stability index under setting [1] was 0.708 ± 0.041 and the protein stability index (genetic background: wild type) was 0.204 ± 0.03.

With “NASIFTVLSYCS [YEL020C-B C-terminal 12 aa]”, the protein stability index is, setting by setting: under setting [1], 0.6702 ± 0.0016; (genetic background: wild type) 0.668 ± 0.02.

NDDNFDDAQEQQ [SEC2 C-terminal 12 aa]: the protein stability index runs as follows: under setting [1], 0.6977 ± 0.0015; (genetic background: wild type) 0.7002 ± 0.0057.

Consider NDIFIPEQEHKQ [HPT1 C-terminal 12 aa], for which the protein stability index is, setting by setting: under setting [1], 0.721 ± 0.011; (genetic background: wild type) 0.674 ± 0.029.

As to “NELSLRPATERI [YBL100W-A C-terminal 12 aa]”, the protein stability index runs as follows: under setting [1], 0.6853 ± 0.0012; (genetic background: wild type) 0.711 ± 0.015.

For NEPEVQPEAAAN [PUS1 C-terminal 12 aa], the protein stability index amounted to 0.679 ± 0.0086 under setting [1] and 0.69 ± 0.011 (genetic background: wild type).

NESLNDYFTGIK [YBP1 C-terminal 12 aa]: the protein stability index under setting [1] was 0.706 ± 0.0084 and the protein stability index (genetic background: wild type) worked out at 0.772 ± 0.16.

For NFAMLGLGPNWE [YUH1 C-terminal 12 aa], the protein stability index reads like this: under setting [1], 0.722 ± 0.0065; (genetic background: wild type) 0.725 ± 0.057.

In the case of “NFWNTGSAIFMQ [YHR069C-A C-terminal 12 aa]”, the protein stability index runs as follows: under setting [1], 0.7347 ± 0.0017; (genetic background: wild type) 0.719 ± 0.029.

Consider NGMWQKPEPGVS [YIL067C C-terminal 12 aa], for which the protein stability index runs as follows: under setting [1], 0.691 ± 0.012; (genetic background: wild type) 0.706 ± 0.028.

In the case of NGRYVDTDFDSM [LCB5 C-terminal 12 aa], the protein stability index is, setting by setting: under setting [1], 0.707 ± 0.02; (genetic background: wild type) 0.659 ± 0.013.

NGTMKRGGVKNK [HPC2 C-terminal 12 aa] had a protein stability index under setting [1] of 0.697 ± 0.02 and a protein stability index (genetic background: wild type) of 0.6239 ± 0.0045.

On to NHPSNDSGNEKN [HCM1 C-terminal 12 aa], for which the protein stability index was found to be 0.667 ± 0.025 under setting [1] and 0.656 ± 0.029 (genetic background: wild type).

For the sequence NHSSSGNKHDEL [MPD1 C-terminal 12 aa], the protein stability index is 0.657 ± 0.0067 under setting [1] and 0.686 ± 0.035 (genetic background: wild type).

With NIILNWIYPYQR [COX18 C-terminal 12 aa], the protein stability index runs as follows: under setting [1], 0.703 ± 0.033; (genetic background: wild type) 0.778 ± 0.076.

For NILFVMKEGRIY [YJL213W C-terminal 12 aa], the protein stability index came to 0.681 ± 0.016 under setting [1] and 0.711 ± 0.056 (genetic background: wild type).

With NIREARYEQQLK [CTF4 C-terminal 12 aa], the protein stability index is 0.733 ± 0.035 under setting [1] and 0.689 ± 0.03 (genetic background: wild type).

NIYNPMDEEENQ [TFB5 C-terminal 12 aa]: the protein stability index is, setting by setting: under setting [1], 0.718 ± 0.025; (genetic background: wild type) 0.683 ± 0.032.

Turning to NLEATNNKKPPL [DAD4 C-terminal 12 aa], the protein stability index came to 0.6963 ± 0.0043 under setting [1] and 0.6968 ± 0.00081 (genetic background: wild type).

For the sequence NLMEMFTKRDRS [ROD1 C-terminal 12 aa], the protein stability index is 0.72 ± 0.022 under setting [1] and 0.713 ± 0.033 (genetic background: wild type).

With NLNQHVKTHASL [COM2 C-terminal 12 aa], the protein stability index is, setting by setting: under setting [1], 0.6752 ± 0.0042; (genetic background: wild type) 0.681 ± 0.029.

Take NMRFFYRLYVKN [BMT6 C-terminal 12 aa]: the protein stability index under setting [1] amounted to 0.489 ± 0.015 and the protein stability index (genetic background: wild type) stood at 0.45 ± 0.0084.

Sequence NNFCALYNLSNP [RPN14 C-terminal 12 aa] registered a protein stability index under setting [1] of 0.714 ± 0.022 and a protein stability index (genetic background: wild type) of 0.6867 ± 0.0038.

In the case of NNTFLDVQAKSN [IMP1 C-terminal 12 aa], the protein stability index reads like this: under setting [1], 0.6944 ± 0.0068; (genetic background: wild type) 0.712 ± 0.026.

In the case of NRFGVLPDDVEE [ECM1 C-terminal 12 aa], the protein stability index under setting [1] came out at 0.714 ± 0.024 and the protein stability index (genetic background: wild type) turned out to be 0.704 ± 0.032.

In the case of NSAAFLLMSLKS [STB3 C-terminal 12 aa], the protein stability index reads like this: under setting [1], 0.674 ± 0.0086; (genetic background: wild type) 0.679 ± 0.011.

Consider NSAFSSASVTKP [YFR057W C-terminal 12 aa], for which the protein stability index under setting [1] is 0.711 ± 0.0094 and the protein stability index (genetic background: wild type) was determined as 0.682 ± 0.023.

Take NSALSSTSTLAI [RIB1 C-terminal 12 aa]: the protein stability index reads like this: under setting [1], 0.6419 ± 0.0051; (genetic background: wild type) 0.64 ± 0.04.

Turning to NSLTQKYGTNNV [AAD15 C-terminal 12 aa], the protein stability index was 0.698 ± 0.016 under setting [1] and 0.697 ± 0.029 (genetic background: wild type).

With NSSGEFQLESLF [MRI1 C-terminal 12 aa], the protein stability index runs as follows: under setting [1], 0.707 ± 0.023; (genetic background: wild type) 0.698 ± 0.051.

For the sequence NSVDWIYSWGKN [MIC12 C-terminal 12 aa], the protein stability index by setting is: under setting [1], 0.716 ± 0.03; (genetic background: wild type) 0.74 ± 0.019.

NTAGQKPTEYHY [APA2 C-terminal 12 aa] displayed a protein stability index under setting [1] of 0.7199 ± 0.0016 and a protein stability index (genetic background: wild type) of 0.702 ± 0.019.

Take NTEQAYSQPFRY [NVJ1 C-terminal 12 aa]: the protein stability index is 0.702 ± 0.021 under setting [1] and 0.722 ± 0.016 (genetic background: wild type).

Consider NTESSDKGAKIQ [SIN3 C-terminal 12 aa], for which the protein stability index is, setting by setting: under setting [1], 0.701 ± 0.035; (genetic background: wild type) 0.664 ± 0.012.

In the case of NTGFDPHLEDGM [TBF1 C-terminal 12 aa], the protein stability index under setting [1] is 0.708 ± 0.032 and the protein stability index (genetic background: wild type) turned out to be 0.691 ± 0.039.

For NTKHYNDTLLKQ [PHO11 C-terminal 12 aa], the protein stability index amounted to 0.718 ± 0.0081 under setting [1] and 0.66 ± 0.0066 (genetic background: wild type).

For the sequence NTTRYNASLVNQ [DIA3 C-terminal 12 aa], the protein stability index is, setting by setting: under setting [1], 0.741 ± 0.031; (genetic background: wild type) 0.712 ± 0.044.

NVIIQDKTKKTQ [MCD4 C-terminal 12 aa]: the protein stability index by setting is: under setting [1], 0.733 ± 0.028; (genetic background: wild type) 0.671 ± 0.011.

Turning to NVKSSTQEKDSK [SGN1 C-terminal 12 aa], the protein stability index reads like this: under setting [1], 0.706 ± 0.014; (genetic background: wild type) 0.721 ± 0.053.

For the sequence NYEDLATTQAAS [BRN1 C-terminal 12 aa], the protein stability index came to 0.722 ± 0.011 under setting [1] and 0.68 ± 0.013 (genetic background: wild type).

For NYQKNEPVEFLE [MIN9 C-terminal 12 aa], the protein stability index under setting [1] is 0.711 ± 0.0097 and the protein stability index (genetic background: wild type) amounted to 0.656 ± 0.026.

With PDVLRKLSHQNV [PNS1 C-terminal 12 aa], the protein stability index is, setting by setting: under setting [1], 0.713 ± 0.0075; (genetic background: wild type) 0.666 ± 0.025.

In the case of PENGSLFEFDDN [SNU66 C-terminal 12 aa], the protein stability index by setting is: under setting [1], 0.6962 ± 0.005; (genetic background: wild type) 0.6836 ± 0.0039.

Regarding PFALPSNDKVFF [ATO2 C-terminal 12 aa], the protein stability index reads like this: under setting [1], 0.698 ± 0.027; (genetic background: wild type) 0.731 ± 0.0052.

In turn, PFIFKTLEEQGL [CCP1 C-terminal 12 aa] registered a protein stability index under setting [1] of 0.743 ± 0.06 and a protein stability index (genetic background: wild type) of 0.691 ± 0.065.

In turn, PFLEKLTLSGLL [CDC45 C-terminal 12 aa] displayed a protein stability index under setting [1] of 0.714 ± 0.0059 and a protein stability index (genetic background: wild type) of 0.694 ± 0.0088.

In the case of PFPQKHRDNHLV [YOR053W C-terminal 12 aa], the protein stability index reads like this: under setting [1], 0.701 ± 0.025; (genetic background: wild type) 0.711 ± 0.012.
